This is an account of results in patent publication US7927849B2, “Laccase enzyme and use thereof” (AB Enzymes OY, priority 2004, dated 2011).

Where “and” joins values, the source holds several entries; their conditions need not be identical. Identical values can stand only once.

Data set [1] deals with Thielavia wild type laccase (wt TaLcc1). As to conditions: pH 4.5.
Data set [2] deals with recombinant Thielavia arenaria TaLcc1 laccase (rTaLcc1). Type of data set: biochemical. How it is done:
The inhibition effect of different compounds on the activity of the recombinant TaLcc1 laccase was determined as described in Example 2.

Data set [3] addresses T1, Thielavia arenaria ALKO4197 laccase TaLcc1, wild type (wt TaLcc1), SEQ ID NO: 12 (Canariomyces arenarius, UniProt F6N9E7).
T1 construct: predicted mature residues 22-604
Briefly: biochemical. The note with it: pH 4.5, read-out: Inhibition (%) of laccase.

The nature of a further data set: Specific activity on DMP. In kind it is biochemical. The note with it: 25 mM MES buffer, pH 5.5. On the procedure: (§1) Specific activities of the purified Thielavia laccase were determined towards different laccase substrates.
A short description of data set [4]: Specific activity on ABTS. Type of data set: biochemical. As to conditions: 25 mM succinate buffer pH 4.5, 25° C. How it is done:
The activity assay was carried out in accordance with the method developed by Niku-Paavola et al. (1988). The sample was diluted with 0.025 M succinate buffer, pH 4.5. […] The activity is expressed as nano katals.
as §1

The nature of data set [5]: Specific activity on syringaldazine. Type of data set: biochemical. As to conditions: 25 mM MES buffer, pH 5.5. On the procedure:
as §1

A short description of data set [6]: Isoelectric focusing (pI). In kind it is physicochemical. The note with it: pH range 3-9, ABTS staining. On the procedure:
Molecular weight of the Thielavia arenaria laccase (wt TaLcc1) was determined on SDS-PAGE according to Laemmli (1970). The gels used in the SDS-PAGE analysis were ready-made 12% Tris HCl gels (BioRad). Protein bands were visualized by staining with Coomassie Brilliant Blue (R 350; Pharmacia) and compared with molecular weight markers (Prestained Protein Marker Broad Range #7708S; New England BioLabs, Beverly, Mass.). The molecular weight of the Thielavia areanaria laccase was approximately 80 kDa. The isoelectric point of the laccase was determined with isoelectric focusing within the pH range of 3-9 (Pharmalyte IEF, Pharmacia) on a LKB 2117 Multiphor II Electrophoresis System (LKB Pharmacia, Bromma, Sweden) according to the manufacturer's instructions.
The purified recombinant Thielavia arenaria TaLcc1 was characterized in terms of pH optimum, thermal stability, and pI as described in Example 2. The molecular weight was determined by MALDI-TOF mass spectrometry on a Ultraflex™ time-of-flight instrument (BrukerDaltonics, Germany) as previously described (Palonen et al., 2003). The redox potential of TaLcc1 was also determined with a combined Pt-AgCl/KCl microelectrode at pH 5.0 according to Sigoillot et al (2004)

The nature of data set [7]: Specific activity on guaiacol. Type of data set: biochemical. As to conditions: 25 mM MES buffer, pH 5.5. How it is done: as §1

Take `[Cl-].[Na+]` [NaCl]: the “Inhibition(%) wt TaLcc1” value in data set [1] is 42% and 35%.

With `O=C(O)CN(CCN(CC(=O)O)CC(=O)O)CC(=O)O` [EDTA], the “Inhibition (%) of laccase rTaLcc1” value in data set [2] is 5%. In data set [1], the “Inhibition(%) wt TaLcc1” value is given as 0%. The inhibition (usually the percentage by which the read-out fell short of the control) at 10000 µM in data set [3] turned out to be 0%.

B1: wt TaLcc1: Wild type laccase purified from Thielavia arenaria ALKO4197 culture supernatant (protein)
chain: MKSWAAAVALMVGILSPHAAAAPPANPVQRDMLQVLEARQSGPTCNTPSNRACWTNGFDINTDYEVSTPNTGRTVAYQLTLTEKENWIGPDGVLKNVVMLVNDKIIGPTIRANWGDNIEVTVINNLKTNGTSMHWHGLRQLGNVFNDGANGVTECPIPPKGGRKTYKFRATQYGTSWYHSHFSAQYGNGVVGTIQIDGPASLPYDIDLGVFPLMDYYYRSADELVHFTQSNGAPPSDNVLFNGTARHPETGAGQWYNVTLTPGKRHRLRIINTSTDNHFQVSLVGHNMTVIATDMVPVNAFTVSSLFLAVGQRYDVTIDANSPVGNYWFNVTFGDGLCGSSNNKFPAAIFRYQGAPATLPTDQGLPVPNHMCLDNLNLTPVVTRSAPVNNFVKRPSNTLGVTLDIGGTPLFVWKVNGSAINVDWGKPILDYVMSGNTSYPVSDNIVQVDAVDQWTYWLIENDPTNPIVSLPHPMHLHGHDFLVLGRSPDELPSAGVRHIFDPAKDLPRLKGNNPVRRDVTMLPAGGWLLLAFKTDNPGAWLFHCHIAWHVSGGLSVDFLERPNDLRTQLNSNAKRADRDDFNRVCREWNAYWPTNPFPKIDSGLRHRFVEESEWMVR
modifications: Thielavia arenaria ALKO4197; (1)..(617) Deduced amino acid sequence of Thielavia arenaria ALKO4197 laccase 1 (Ta Lcc1)
notes: Wild type laccase purified from Thielavia arenaria ALKO4197 culture supernatant
Take B1: the “Specific activity on DMP” value in the data set “Specific activity on DMP” was determined as 260 nkat/mg. Also, the “Specific activity on ABTS” value in data set [4] amounted to 1020 nkat/mg. Further, the “Specific activity on syringaldazine” value in data set [5] is 490 nkat/mg. In data set [6], the pI is listed as 5.5-6.9. Moreover, the “Specific activity on guaiacol” value in data set [7] is given as 63 nkat/mg.
